Article PMC11846989 (Communications Biology, 2025)

Legend:
[1] = biological target: the molecule itself; assay: SEC
[2] = biological target: the molecule itself; assay: SEC-MALS

Protein	stoichiometry N [1]	stoichiometry N [2]
human GBP2 G domain (1-309), wild type (domain or fragment, UniProt P32456 1-309, looked up) MAPEINLPGPMSLIDNTKGQLVVNPEALKILSAITQPVVVVAIVGLYRTGKSYLMNKLAGKKNGFSLGSTVKSHTKGIWMWCVPHPKKPEHTLVLLDTEGLGDIEKGDNENDSWIFALAILLSSTFVYNSMGTINQQAMDQLHYVTELTDRIKANSSPGNNSVDDSADFVSFFPAFVWTLRDFTLELEVDGEPITADDYLELSLKLRKGTDKKSKSFNDPRLCIRKFFPKRKCFVFDWPAPKKYLAHLEQLKEEELNPDFIEQVAEFCSYILSHSNVKTLSGGIPVNGPRLESLVLTYVNAISSGDLPC	2	
full-length human GBP2 (guanylate-binding protein 2), wild type (natural protein, UniProt P32456 1-591, looked up) MAPEINLPGPMSLIDNTKGQLVVNPEALKILSAITQPVVVVAIVGLYRTGKSYLMNKLAGKKNGFSLGSTVKSHTKGIWMWCVPHPKKPEHTLVLLDTEGLGDIEKGDNENDSWIFALAILLSSTFVYNSMGTINQQAMDQLHYVTELTDRIKANSSPGNNSVDDSADFVSFFPAFVWTLRDFTLELEVDGEPITADDYLELSLKLRKGTDKKSKSFNDPRLCIRKFFPKRKCFVFDWPAPKKYLAHLEQLKEEELNPDFIEQVAEFCSYILSHSNVKTLSGGIPVNGPRLESLVLTYVNAISSGDLPCMENAVLALAQIENSAAVEKAIAHYEQQMGQKVQLPTETLQELLDLHRDSEREAIEVFMKNSFKDVDQMFQRKLGAQLEARRDDFCKQNSKASSDCCMALLQDIFGPLEEDVKQGTFSKPGGYRLFTQKLQELKNKYYQVPRKGIQAKEVLKKYLESKEDVADALLQTDQSLSEKEKAIEVERIKAESAEAAKKMLEEIQKKNEEMMEQKEKSYQEHVKQLTEKMERDRAQLMAEQEKTLALKLQEQERLLKEGFENESKRLQKDIWDIQMRSKSLEPICNIL		2
